Results: the DeepSol protein solubility set

Test: soluble on expression in E. coli; label from the status in PepcDB or PDB records

Sequence	soluble on expression in E. coli
MFVRICAMFGFVSDLLTAAVSSLDELLQDTPAHQIILGTAALYFLYNQYHNPSISRWYRSRNNASMKQRIIDSAYALAKNLPGVNQIIEKELNKELSSTREKLRIQRSGMTLREEIPEEGLSPQDILSAFDVDVEKCHFDFLSVTNDSPEREFLVERGDGKDSGALYAIHPKELTELLKEVYGATALTNPLHDKWPRINAMQAEVIRWCQNLFHGSKECYGLLTHGGTTSIIEAMAAYVIRARAKGIDYPEIVVPETAHAAFKKAAELTGAILITVPVDKKTGAVNPKVMSSYITRNTAVIVGSAPSFMNGIHDPVSELGQLAKKKNVPFHVDACLGGFLTAFLDTSSEPMDFRVPGVTSISADLHKYGCCPKGTSVCLFSEDSPALSVYAALNWSGGLYATPGILDGSTSGARVAEVYATLSYYGKNKYQEIAKSIITLRNAIQKELTTLLEEGNGLTSEDIYVYGNPQWSILGFRSNTCNAHFIADELEKRGWKLNLLQNPDGFHLCLTHVHTLVKGFETQFIKDLREAVIDVKNYPPGKKPSGNVKVYGAVGMMPIELQREICKQYQKARLNYTSASPGSLRIFTNVPVEEDEGLRNRKTEKYKV	not soluble
MSLKITDLRVAVVSRAPMTCPIIRIDTNQGIYGLGEVRDGASKNYALMLKSRLLNENPCNVDKLFRKIKQFGGHARQGGGVCGVEMALWDLAGKAYNVPVHQMLGGKFRDRIRCYADTTESHDPKVYGQRLKARRDEGFTWLKMDLGVDLVADVPGALTMPVGERINGNPMVAHMFTGNEITEKGIQLMCDYVAQIREIVGMDIPLSADHFGHIGVNSCIRLGKALTKYNMAWLEDMIPWQQTALLKQIADAVDIPILTGEDIYLKEPFIELCKAHAVDIIHPDLATSGGILETKKIGDAAQELGVAMAMHFAGSPVSCMANVHCAAATENFLVLENHSVDVPWWGDLVEGVSKPIVSKGFITVPNGPGLGVTLNDEVVKQHLGEPGYFEATPYWNVDRSNDRQWSEGHHHHHH	not soluble
MGSSHHHHHHGGTGENLYFQGGSGPSSVAYVLGTESCGKTDLVHQLEYLTLGLVRTVPTACTPTTGQEVTKLNICSPAGKGKVTVEVRELGGSLVNTWESFIESRKARDGGSGDTSFLLIYVVDGVAPHQLPLASTMFRYLTQGRHAPCAGWPTLITVQKCASVNAITAEEVRSFFLDEVEAPANVDVVEVDSWNGIGTGDVLKGIEAVFGGLQ	not soluble
MGSDKIHHHHHHMTKTDPAPMAPPPRGEEEEEEEEDEPVPEAPSPTQERRQKPVVHPSAPAPLPKDYAFTFFDPNDPACQEILFDPQTTIPELFAIVRQWVPQVQHKIDVIGNEILRRGCHVNDRDGLTDMTLLHYACKAGAHGVGDPAAAVRLSQQLLALGADVTLRSRWTNMNALHYAAYFDVPVLVRVLLKGARPRVVNSTCSDFNHGSALHIAASSLCLGAAKCLLEHGANPALRNRKGQVPAEVVPDPMDMSLDKAEAALVAKELRTLLEEAVPLSCALPKVTLPNYDNVPGNLMLSALGLRLGDRVLLDGQKTGTLRFCGTTEFASGQWVGVELDEPEGKNDGSVGGVRYFICPPKQGLFASVSKISKAVDAPPSSVTSTPRTPRMDFSRVTGKGRREHKGKKKTPSSPSLGSLQQRDGAKAEVGDQVLVAGQKQGIVRFYGKTDFAPGYWYGIELDQPTGKHDGSVFGVRYFTCPPRHGVFAPASRIQRIGGSTDSPGDSVGAKKVHQVTMTQPKRTFTTVRTPKDIASENSISRLLFCCWFPWMLRAEMQS	not soluble
GGEGTDAIQALIQAYFTAWNTNAPERFAEIFWPDGSWVNVVGMHWRGRDQIVFAHTAFLKTIFKDCKQELVTIEARTIAPGSALAVVTLIQDAYVTPDGRQMPRAHDRLTLLAVEREGVWRFIHGHNTIVNPDAANNDPVLRMKPA	soluble
AHHHHHHGSEDIVEALKLAVTNLPEDVALALKNAYEREDYEIAKYNLEIMLRAVKTSKKEKVPLCQDTGTPIFFVETDGTWNVKEIYETIAEAVKRATDEIPLRPNAICLLSGKVVGNVPEIHIEPGKRNRISILIKGGGSENCSALFPLTPGDWFEGVKKKIIDHIRSCGGKPCPPIIVGIGIASPAERAITLAKKSLFRKIGERHEKLGWLEEEILEEINFLDIGPMGLGGKTTALDVKIEVGERHPASFIVGIAIQCWAHRRAFIEEKEDGEVVIWQ	soluble
MKTTLFYIMFAYALSTAFPSMMLAQASSIAEVNQGQASKMVIDSSARVLSTLEQQRAQFRQDPKALRQFMETEFTTIFDRDYAARLVLGKYARNASDTDVKLFADAITENLMQRYGNALLTFEGKPNFRAKSESRLPGNRNVRVSTELIRSGADPVAVDYLLRNVNGQWKIFDVMIEGISYVQTFRNQFDAPLRQKGIAQVAAELRSGNLQVGKSNGKAAALEHHHHHH	soluble
